Measurements from paper PMC6044691 (ACS Omega, 2017).

Columns and labels:
[1] = target: the molecule itself; assay: AUC
[2] = target: the molecule itself; assay: crystal structure

| Protein | stoichiometry N [1] | binding result [2] |
| --- | --- | --- |
| N-terminal truncated Z,Z-farnesyl diphosphate synthase (ΔzFPS) (enzyme, Solanum habrochaites, UniProt B8XA40 71-303, looked up) MLDEALMPKHIALIMDGNRRWAKDKGLDVSEGHKHLFPKLKEICDISSKLGIQVITAFAFSTENWKRAKGEVDFLMQMFEELYDEFSRSGVRVSIIGCKTDLPMTLQKCIALTEETTKGNKGLHLVIALNYGGYYDILQATKSIVNKAMNGLLDVEDINKNLFDQELESKCPNPDLLIRTGGDQRVSNFLLWQLAYTEFYFTKTLFPDFGEEDLKEAIINFQQRHRRFGGHTY | 2 | – |
| ΔzFPS-H103Y mutant (enzyme, Solanum habrochaites, UniProt B8XA40 71-303, looked up) MLDEALMPKHIALIMDGNRRWAKDKGLDVSEGYKHLFPKLKEICDISSKLGIQVITAFAFSTENWKRAKGEVDFLMQMFEELYDEFSRSGVRVSIIGCKTDLPMTLQKCIALTEETTKGNKGLHLVIALNYGGYYDILQATKSIVNKAMNGLLDVEDINKNLFDQELESKCPNPDLLIRTGGDQRVSNFLLWQLAYTEFYFTKTLFPDFGEEDLKEAIINFQQRHRRFGGHTY | – | binds |
